Paper PMC11326279 (bioRxiv, 2024)
Blank lines part the entries; values can stand above or below the binder they belong to.

Target: FtsH with a C-terminal FLAG epitope, chromosomally encoded (E. coli, UniProt P0AAI3 1-644)
Assay: cryo-EM structure

Sequence of FtsH with a C-terminal FLAG epitope, chromosomally encoded (P0AAI3 whole entry): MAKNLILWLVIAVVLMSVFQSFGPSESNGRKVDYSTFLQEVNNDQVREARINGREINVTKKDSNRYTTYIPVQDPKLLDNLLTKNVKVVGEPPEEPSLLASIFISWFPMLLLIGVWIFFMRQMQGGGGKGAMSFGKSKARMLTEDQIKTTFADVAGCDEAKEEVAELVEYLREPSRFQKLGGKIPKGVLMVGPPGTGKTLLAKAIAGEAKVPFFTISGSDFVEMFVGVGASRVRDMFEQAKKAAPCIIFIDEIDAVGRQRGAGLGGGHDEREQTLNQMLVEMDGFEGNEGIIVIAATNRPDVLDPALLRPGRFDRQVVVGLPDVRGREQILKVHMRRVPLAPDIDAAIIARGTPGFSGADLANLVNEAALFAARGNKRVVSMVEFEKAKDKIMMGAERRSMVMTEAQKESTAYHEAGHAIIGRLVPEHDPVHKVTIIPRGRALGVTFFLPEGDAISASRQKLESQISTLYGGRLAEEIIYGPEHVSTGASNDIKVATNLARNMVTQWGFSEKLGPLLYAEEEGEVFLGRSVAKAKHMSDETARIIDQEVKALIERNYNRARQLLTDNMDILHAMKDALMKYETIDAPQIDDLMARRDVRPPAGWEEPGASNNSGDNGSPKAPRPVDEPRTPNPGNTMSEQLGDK

- binding result: binds
B1: HflC, endogenous (natural protein, E. coli (endogenous in BL21(DE3)), UniProt P0ABC3 1-334, looked up)
chain: MRKSVIAIIIIVLVVLYMSVFVVKEGERGITLRFGKVLRDDDNKPLVYEPGLHFKIPFIETVKMLDARIQTMDNQADRFVTKEKKDLIVDSYIKWRISDFSRYYLATGGGDISQAEVLLKRKFSDRLRSEIGRLDVKDIVTDSRGRLTLEVRDALNSGSAGTEDEVTTPAADNAIAEAAERVTAETKGKVPVINPNSMAALGIEVVDVRIKQINLPTEVSEAIYNRMRAEREAVARRHRSQGQEEAEKLRATADYEVTRTLAEAERQGRIMRGEGDAEAAKLFADAFSKDPDFYAFIRSLRAYENSFSGNQDVMVMSPDSDFFRYMKTPTSATR

- binding result: binds
B2: HflK, endogenous (natural protein, E. coli (endogenous in BL21(DE3)), UniProt P0ABC7 1-419, looked up)
chain: MAWNQPGNNGQDRDPWGSSKPGGNSEGNGNKGGRDQGPPDLDDIFRKLSKKLGGLGGGKGTGSGGGSSSQGPRPQLGGRVVTIAAAAIVIIWAASGFYTIKEAERGVVTRFGKFSHLVEPGLNWKPTFIDEVKPVNVEAVRELAASGVMLTSDENVVRVEMNVQYRVTNPEKYLYSVTSPDDSLRQATDSALRGVIGKYTMDRILTEGRTVIRSDTQRELEETIRPYDMGITLLDVNFQAARPPEEVKAAFDDAIAARENEQQYIREAEAYTNEVQPRANGQAQRILEEARAYKAQTILEAQGEVARFAKLLPEYKAAPEITRERLYIETMEKVLGNTRKVLVNDKGGNLMVLPLDQMLKGGNAPAAKSDNGASNLLRLPPASSSTTSGASNTSSTSQGDIMDQRRANAQRNDYQRQGE
